The subject of one experiment is GFP–talin1–cBAK. Kind of experiment: Mitochondrial targeting system (MTS): recruitment of mCherry–KANK1 by GFP–talin1–cBAK. As to conditions: NIH3T3 fibroblasts and HEK293T cells; fluorescence microscopy colocalization. Format: cell-based. An excerpt:
To examine the effect of these KANK1 mutations on talin interactions in cells, we next used a mitochondrial targeting system (MTS) which we previously used to screen for defined protein–protein interactions. In this assay, one protein is fused to a small peptide sequence from the pro-apoptotic protein BAK (cBAK) which leads to its insertion into the outer membrane of mitochondria. Proteins that interact with the cBAK-tagged protein will get recruited to mitochondria, and this recruitment can be verified either by visualizing colocalization using fluorescence microscopy (figure 4a) or by purification of mitochondria followed by detection of co-precipitates using biochemistry (figure 4b,c). […] To confirm that the interaction was meditated by the R7 domain, we performed the colocalization assays with truncated talin constructs.
(§1) NIH3T3 mouse fibroblasts and HEK293T human epithelial cells were obtained from the American Type Culture Collection (ATCC). The vinculin null and WT mouse embryonic fibroblasts (MEFs) originate from the Eileen Adamson laboratory. All cells were maintained in Dulbecco's Modified Eagle Medium (DMEM; Sigma) supplemented with 10% fetal bovine serum (FBS, Gibco), 1% L-glutamine (Sigma) and 1% non-essential amino acids (Sigma). Talin1&2 null cells were cultured in DMEM F-12 (Gibco) supplemented with 10% FBS, 1% L-glutamine, 1% non-essential amino acids and […] HEPES (Sigma). All cells were cultured at 37̊C supplied with 5% CO2 and 95% humidity. Transient transfections were performed using Lipofectamine LTX with Plus Reagent (Invitrogen) to NIH3T3 cells, Lipofectamine 2000 (Invitrogen) to talin null cells, and jetPRIME reagent (Polyplus) to MEFs and HEK293T cells, as per the manufacturer's instructions.
(§2) For the construction of mCherry-KANK1, human FL-KANK1 (generous donation from the Bershadsky laboratory) cDNA was tagged in the C-terminal site with pmCherry (Clontech) by restriction digestion. Point mutations (L41E, L43E, F45E and V49E) were introduced in mCherry-KANK1 by site-directed mutagenesis (NEB) using the following oligonucleotides: […]ga[…] and […] for L41E; […]ga[…] and […] for L43E; […]gaa[…] and […] for F45E; […]a[…] and […] for V49E. Generation of GFP–talin1–cBAK and GFP–cBAK was as previously described. G1404L was introduced on GFP–talin1–cBAK by the method above using […]ctt[…] and […]. To generate GFP–talin1 R7DD–cBAK and GFP–talin1 R9DD-cBAK constructs, R7-DD (3555 bp) and R9-DD (2661 bp) were amplified from talin-1 (Mus musculus). Restriction digestion with XhoI and HindIII FastDigest enzymes (Thermo Scientific) was used to linearize GFP–cBAK. DNA assembly was performed to join R7-DD and R9-DD to linearized the GFP–cBAK vector using the NEBuilder HiFi DNA assembly kit (NEB).
(§3) Images of fixed samples in PBS were acquired at room temperature using an Olympus IX83 inverted microscope equipped with a 60×/1.42 PlanApo N oil objective and a QImaging Retiga R6 CCD camera, controlled by Metamorph software. Samples were illuminated using LEDs (UV/Cyan/Green-Yellow/Red, Lumencor) for fluorescence excitation; a Sedat filter set (DAPI/FITC/TRITC/Cy5, Chroma, 89000) was used.

The subject of experiment [1] is α/β liprin in NIH3T3 fibroblasts. Kind of experiment: α/β liprin localization (CMSC assembly). As to conditions: NIH3T3 fibroblasts co-transfected with GFP–paxillin and mCherry–KANK1 F45E; immunostaining. The experiment is classed as cell-based, mouse. The protocol:
as §1, with “instructions. […]” for “instructions.”
as §3

For experiment [2], the system named is focal adhesions of NIH3T3 fibroblasts. As to the kind of experiment: KANK1 localization to focal adhesions (co-expression with GFP–paxillin). Format: cell-based, mouse. As to conditions: NIH3T3 fibroblasts co-expressing GFP–paxillin. The protocol:
as §1, §2, §3

In the next experiment the test system is talin1-cBAK. Kind of experiment: Mitochondria pulldown of KANK1 WT or point mutations, Western blot. The experiment is classed as cell-based. As to conditions: HEK293T cells; mitochondrial pulldown, triplicate experiments, normalized to WT; *** p < 0.001 (one-way ANOVA, Dunnett's).
Source text: as §2
For fixed cell imaging, cells were cultured in glass-bottom dishes (IBL) coated with bovine fibronectin (Sigma) at a final concentration of 10 µg ml^−1. Samples were fixed in 4% paraformaldehyde (PFA, Sigma), and warmed to 37̊C, for 15 min before being washed three times with PBS. For immunofluorescence staining, samples were permeabilized at room temperature with 0.5% Triton X-100 (Sigma) for 5 min before being washed three times. […]
Protein samples were extracted from cells and mitochondria, respectively, using RIPA lysis buffer (Chromotek) supplemented with protease inhibitors. […] Primary antibody signal was detected using goat anti-mouse IgG conjugated to IRDye 680RD (ab216776, abcam) and goat anti-rabbit IgG conjugated to IRDye 800CW (ab216773, abcam) secondary antibodies, diluted 1 : 15 000, imaged with an Odyssey CLx imaging system (LI-CO Biosciences). […]
On the technique in general: A western blot detects proteins with antibodies after separation by electrophoresis.

B1: KANK1 F45E: mCherry-KANK1 with point mutation F45E (protein)
chain: MAHTTKVNGSASGKAGDILSGDQDKEQKDPYFVETPYGYQLDLDELKYVDDIQKGNTIKRLNIQKRRKPSVPCPEPRTTSGQQGIWTSTESLSSSNSDDNKQCPNFLIARSQVTSTPISKPPPPLETSLPFLTIPENRQLPPPSPQLPKHNLHVTKTLMETRRRLEQERATMQMTPGEFRRPRLASFGGMGTTSSLPSFVGSGNHNPAKHQLQNGYQGNGDYGSYAPAAPTTSSMGSSIRHSPLSSGISTPVTNVSPMHLQHIREQMAIALKRLKELEEQVRTIPVLQVKISVLQEEKRQLVSQLKNQRAASQINVCGVRKRSYSAGNASQLEQLSRARRSGGELYIDYEEEEMETVEQSTQRIKEFRQLTADMQALEQKIQDSSCEASSELRENGECRSVAVGAEENMNDIVVYHRGSRSCKDAAVGTLVEMRNCGVSVTEAMLGVMTEADKEIELQQQTIESLKEKIYRLEVQLRETTHDREMTKLKQELQAAGSRKKVDKATMAQPLVFSKVVEAVVQTRDQMVGSHMDLVDTCVGTSVETNSVGISCQPECKNKVVGPELPMNWWIVKERVEMHDRCAGRSVEMCDKSVSVEVSVCETGSNTEESVNDLTLLKTNLNLKEVRSIGCGDCSVDVTVCSPKECASRGVNTEAVSQVEAAVMAVPRTADQDTSTDLEQVHQFTNTETATLIESCTNTCLSTLDKQTSTQTVETRTVAVGEGRVKDINSSTKTRSIGVGTLLSGHSGFDRPSAVKTKESGVGQININDNYLVGLKMRTIACGPPQLTVGLTASRRSVGVGDDPVGESLENPQPQAPLGMMTGLDHYIERIQKLLAEQQTLLAENYSELAEAFGEPHSQMGSLNSQLISTLSSINSVMKSASTEELRNPDFQKTSLGKITGNYLGYTCKCGGLQSGSPLSSQTSQPEQEVGTSEGKPISSLDAFPTQEGTLSPVNLTDDQIAAGLYACTNNESTLKSIMKKKDGNKDSNGAKKNLQFVGINGGYETTSSDDSSSDESSSSESDDECDVIEYPLEEEEEEEDEDTRGMAEGHHAVNIEGLKSARVEDEMQVQECEPEKVEIRERYELSEKMLSACNLLKNTINDPKALTSKDMRFCLNTLQHEWFRVSSQKSAIPAMVGDYIAAFEAISPDVLRYVINLADGNGNTALHYSVSHSNFEIVKLLLDADVCNVDHQNKAGYTPIMLAALAAVEAEKDMRIVEELFGCGDVNAKASQAGQTALMLAVSHGRIDMVKGLLACGADVNIQDDEGSTALMCASEHGHVEIVKLLLAQPGCNGHLEDNDGSTALSIALEAGHKDIAVLLYAHVNFAKAQSPGTPRLGRKTSPGPTHRGSFD
modifications: left off: mCherry, C-terminal, kept
For B1, the “recruitment of mCherry–KANK1 to mitochondria by GFP–talin1–cBAK” value with GFP–talin1–cBAK is recorded as “abolishes GFP–talin–cBAK mediated recruitment”. Besides, in experiment [1], the α/β liprin localization result is “loss of α/β liprin from both the adhesion belt and the cellular cortex”. Besides, in experiment [2], the “localization of mCherry–KANK1 to FAs / FA belt” value is “abolished localization to FAs and the FA belt”. Moreover, the “relative KANK1 binding to talin1-cBAK (%)” value in the experiment with talin1-cBAK is reported as “not detected”.

Source of the values: article PMC10281804, “The structural basis of the talin–KANK1 interaction that coordinates the actin and microtubule cytoskeletons at focal adhesions” (Open Biology, 2023).
